Measurements taken from article PMC7289447.
Residue numbers refer to the chain shown, from its start. Numbers in names are those of the source. Blank lines part the entries; values can stand above or below the binder they belong to.

Key:
Hsc20 Q46Bpa, P53193 = molecular target: T1, Hsc20 Q46Bpa, P53193; experiment: site-specific Bpa photo-crosslinking, SDS-PAGE band quantification; conditions: chain shown with the change; in the presence of ATP; UV irradiation; parent: est. 1.0; read off a plot
T1 chain: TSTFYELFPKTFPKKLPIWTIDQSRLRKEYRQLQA

Hsc20 M51Bpa, P53193 = molecular target: T2, Hsc20 M51Bpa, P53193; experiment: as above; conditions: chain shown with the change; in the presence of ATP; UV irradiation; parent: est. 1.0; read off a plot
T2 chain: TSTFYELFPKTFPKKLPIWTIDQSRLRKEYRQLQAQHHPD

ratio to parent (Hsc20 Q46Bpa, P53193): 0.22 | ratio to parent (Hsc20 M51Bpa, P53193): 0.11
B1: Ssq1 wild-type D246A; E253A (protein)
chain: MLKSGRLNFLKLNINSRLLYSTNPQLTKKVIGIDLGTTNSAVAYIRDSNDKKSATIIENDEGQRTTPSIVAFDVKSSPQNKDQMKTLVGMAAKRQNAINSENTFFATKRLIGRAFNDKEVQRDMAVMPYKIVKCESNGQAYLSTSNGLIQSPSQIASILLKYLKQTSEEYLGEKVNLAVITVPAYFNDSQRQATKDAGKLAGLNVLRVINEPTAAALSFGIDDKRNNGLIAVYDLGGGTFDISILAIEDGVFAVRATNGDTHLGGEDFDNVIVNYIIDTFIHENPEITREEITKNRETMQRLKDVSERAKIDLSHVKKTFIELPFVYKSKHLRVPMTEEELDNMTLSLINRTIPPVKQALKDADIEPEDIDEVILVGGMTRMPKIRSVVKDLFGKSPNSSVNPDETVALGAAIQGGILSGEIKNVLLLDVTPLTLGIETFGGAFSPLIPRNTTVPVKKTEIFSTGVDGQAGVDIKVFQGERGLVRNNKLIGDLKLTGITPLPKGIPQIYVTFDIDADGIINVSAAEKSSGKQQSITVIPNSGLSEEEIAKLIEEANANRAQDNLIRQRLELISKADIMISDTENLFKRYEKLISSEKEYSNIVEDIKALRQAIKNFKANENDMSIDVNGIKKATDALQGRALKLFQSATKNQQNQGK

ratio to parent (Hsc20 Q46Bpa, P53193): 0.28 | ratio to parent (Hsc20 M51Bpa, P53193): 0.22
B2: Ssq1 wild-type E248A; D249A (protein)
chain: B1 chain with A246D, E248A, D249A, A253E
